Source: the DeepSol protein solubility set

Assay: soluble on expression in E. coli; label from the status in PepcDB or PDB records

Sequence: MSKNIKTPTNQKVLTNVAVVRMKKTGKRFEIACYKNKVVNWRNKSEKDIDEVLQTHTVFSNVSKGQLSKKEELIAAFGIEDQLEICKIILDKGDLQVSEKERQAASDQSLKEVSQLIASMVVNPETKRPVPPSVIDKALQEMHFSLKPNRSSKQQALDAIPKLRETLKIERAKMKIRVAIPTKEAKSVHTKLKTLFSDVEVDDWQDGSLEMVGLIEPGSFRALDDLVRNETKGHGRLEILSLKDVVEGELQIS
- soluble on expression in E. coli: soluble

Sequence: MEQNLKNIKISIIIPTLNEVGNIQQTIATTQPSVNIEVIVVDGGSQDDTVAIAQSLGVKVISSSPGRAVQMNTGAALAAGEILLFLHADTRLPVGFDEMIRAALQQPGVVAGAFALRIDADLAGLRWVEKGVYWRSHFFQMPYGDQAIFMTKAVFEKVGGFSELPIMEDFELMRRLKHIGKITVLGVAVITSGRRWLQRGVFQTTLINQVVIIAYLLGVAPAQLHSWYRQGKFFRIGGRLLEHHHHHH
- soluble on expression in E. coli: soluble

Sequence: MPSGYGVLLATHDDDTVDVFTSGRKMRLTCSPNIDAASLKKGQTVRLNEALTVVEAGTFEAVGEISTLREILADGHRALVVGHADEERVVWLADPLIAEDLPDGLPEALNDDTRPRKLRPGDSLLVDTKAGYAFERIPKAEVEDLVLEELVPR
- soluble on expression in E. coli: soluble

Sequence: MGHHHHHHSHLCTNFFIFTGGPGSGKTAVLNELNTWGYLTVSEVARSIIQKQQADGGDAIHTGNRKAFRDLMLEQSIADYCKMQSEEKIVFFDRGIPDLYGYSKAFCGEASKEVNEAVGRFRYNKTVFIFPPWPEIYENDDERQQDYQEALQTYYAVKEGYFDCGYVLLEVPKCPIKDRANFIFQMISKNG
- soluble on expression in E. coli: not soluble

Sequence: GPQLDHVDIDLTDKAAMQDGARTFANYCMGCHSAKFQRYERVATDLGIPADLMMEKLVFTGAKIGDHMDIGMKPADAKTWFGAAPPDLTLVARVRGTDWLYSYLRSFYEDPKRPWGVNNVIFPNVGMPNVLAPLQGRQVIGCKQVQVVEDGKKQFDPLTGTPLTHEACDQLTVVPKTGELNEAQFDEKVKNLVTFLAYSANPNKLASERIG
- soluble on expression in E. coli: not soluble

Sequence: MEPMRIGPRLSVAAVSHVGRRQNNEDFHRVLPLETPAGLLLLLAVADGMGGLEAGEWASKLAIEALSEAARGYAEHLQSGRPAVGLARVMEKGFLLARRRVEREAERPGRRGMGTTLTAFLYADWLKEGVVGHIGDSRAYRFGPTGVFRLTEDHSWVAERLKEGVLTRTEAERHPYRNVLTRALGLPEARFDLVEVRLAPGEGVLLVTDGLYGHVPEEEWRLGRDLQASLEAMVAEALRRGGDDNVTAVALRVE
- soluble on expression in E. coli: soluble

Sequence: MSLAHVCSVILVRRSFDIHHEQQKISLHNESILLLDKNLADDFAFCSLDTRRLDIEELTVCHYLQNIRQLPRNLGLHSKDRLLINQSPPIQLVTAIFDSFNDPRVNSPILSKMLYLSCLSMFSHKKELIPLLFNSISTVSGKVERLISFDIAKRWYLRDIAERMYTSESLIKKKLQDENTCFSKILLASRMSMARRLLELRQIPLHTIAEKCGYSSTSYFINTFRQYYGVTPHQFSQHSPGTEGHHHHHH
- soluble on expression in E. coli: soluble

Sequence: MGSDKIHHHHHHMPSVVGHPQGNIEAIAFVIKFLEGLGFDIRITDIEKTEQPTIIAHYPGRLSDNKIVIYGHYDVAPVKELNSWVSEEAFTLENINGRLYGRGIADNKGPLMARMIALKSLILSDKAIPEILWLIQGEEEITQGDRVAHDIFKDEIPAFGAPVYIEETGFNDLDSNTQIAFLWSPDKSDSELIPWHSLLESSLDSPRIEYRHLNKLNGIKACPLLYNLPKNAVYMGFGPNDRLHFIHRDNESLNENKLLKHQQQFEKFLANYALYNDES
- soluble on expression in E. coli: not soluble

Sequence: MAEYLVPKSAVVFEEEIKKSRFITYLQHTEGLEDARAFWAKIKQEHPNARHHCWAAVAGKPTDSLQLGFSDDGEPAGTAGKPMLSALQGSQLGEISAVVVRYYGGILLGTGGLVRAYGNGVQQALKLIESEIKVERTLFKLDCDYGQLRLVQQLCEKYQVEILSQGFQANIHLILGISEKTIEAFSSELTEKSSGRLVIQLLEIGELEHHHHHH
- soluble on expression in E. coli: soluble

Sequence: MTAFAAASPRAAVRTGFDGLAISVATRAMMKNLDQNFDAILITGPTASGKSALALRLARERNGVVINADSMQVYDTLRVLTARPSDHEMEGVPHRLYGHVPAGSAYSTGEWLRDISGLLSDLRGEGRFPVIVGGTGLYFKALTGGLSDMPAIPDDLREGLRARLIEEGAAKLHAELVSRDPSMAQMLQPGDGQRIVRALEVLEATGKSIRDFQRASGPMIIDPERAQKFIVLPERPVLHDRINRRFEAMMDSGAVEEVQALLALNLAPDATAMKAIGVAQIADMLTGRMGAAEVIEKSAAATRQYAKRQMTWFRNQMGDDWTRIQPAAALEHHHHHH
- soluble on expression in E. coli: not soluble
